1 molecule from paper PMC2670953 (Journal of molecular biology, 2009) can be followed below.

This assay addresses DNA polymerase II (Pol II) of E. coli (E. coli, UniProt P21189 1-783). The assay is described as follows: SPR.

DNA polymerase II (Pol II) of E. coli, sequence (P21189 whole entry): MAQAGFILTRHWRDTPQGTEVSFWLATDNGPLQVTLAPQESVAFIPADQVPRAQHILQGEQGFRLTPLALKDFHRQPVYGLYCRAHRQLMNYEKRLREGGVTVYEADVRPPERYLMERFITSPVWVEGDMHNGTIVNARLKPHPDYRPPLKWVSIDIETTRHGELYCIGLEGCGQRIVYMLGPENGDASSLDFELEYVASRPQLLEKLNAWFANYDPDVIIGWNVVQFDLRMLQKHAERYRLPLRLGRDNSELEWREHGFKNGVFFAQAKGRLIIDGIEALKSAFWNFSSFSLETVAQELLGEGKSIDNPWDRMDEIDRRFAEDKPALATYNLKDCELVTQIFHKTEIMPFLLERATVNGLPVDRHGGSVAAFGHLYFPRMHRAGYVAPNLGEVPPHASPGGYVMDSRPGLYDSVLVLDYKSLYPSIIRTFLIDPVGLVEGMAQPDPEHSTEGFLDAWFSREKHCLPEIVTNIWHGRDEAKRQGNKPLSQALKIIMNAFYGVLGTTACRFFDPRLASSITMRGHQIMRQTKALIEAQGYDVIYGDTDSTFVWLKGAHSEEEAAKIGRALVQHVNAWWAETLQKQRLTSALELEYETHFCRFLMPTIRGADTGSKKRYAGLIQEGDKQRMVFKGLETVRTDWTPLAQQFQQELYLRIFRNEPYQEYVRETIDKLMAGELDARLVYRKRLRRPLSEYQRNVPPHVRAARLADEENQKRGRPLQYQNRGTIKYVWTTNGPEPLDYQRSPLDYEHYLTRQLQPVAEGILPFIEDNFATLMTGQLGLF

B1: mutant β^148–152 sliding clamp, N-terminally His6 and cAMP-dependent kinase motif tagged (natural protein, E. coli)
chain: MKFTVEREHLLKPLQQVSGPLGGRPTLPILGNLLLQVADGTLSLTGTDLEMEMVARVALVQPHEPGATTVPARKFFDICRGLPEGAEIAVQLEGERMLVRSGRSRFSLSTLPAADFPNLDDWQSEVEFTLPQATMKRLIEATQFSMAAAAAAYYLNGMLFETEGEELRTVATDGHRLAVCSMPIGQSLPSHSVIVPRKGVIELMRMLDGGDNPLRVQIGSNNIRAHVGDFIFTSKLVDGRFPDYRRVLPKNPDKHLEAGCDLLKQAFARAAILSNEKFRGVRLYVSENQLKITANNPEQEEAEEILDVTYSGAEMEIGFNVSYVLDVLNALKCENVRMMLTDSVSSVQIEDAASQSAAYVVMPMRL
In the case of B1, the Kd worked out at 182 nM, the off-rate (koff) stood at 0.00273 s⁻¹ and the kon turned out to be 15100 M⁻¹ s⁻¹.
